In patent US7378087:

Assays:
[1] = molecular target: H-2K^b MHC class I molecule (mouse) (UniProt P01901); assay: FACS on RMA cells; IFN +, peptide +, hβ2m +
[2] = molecular target: H-2K^b MHC class I molecule (mouse) (UniProt P01901); assay: FACS on RMA cells; IFN +, peptide +, hβ2m -
[3] = molecular target: H-2K^b MHC class I molecule (mouse) (UniProt P01901); assay: FACS on RMA cells; IFN +, peptide -, hβ2m +
[4] = molecular target: H-2K^b MHC class I molecule (mouse) (UniProt P01901); assay: FACS on RMA cells; IFN +, peptide -, hβ2m -
[5] = molecular target: H-2K^b MHC class I molecule (mouse) (UniProt P01901); assay: FACS on RMA cells; IFN -, peptide +, hβ2m +
[6] = molecular target: H-2K^b MHC class I molecule (mouse) (UniProt P01901); assay: FACS on RMA cells; IFN -, peptide -, hβ2m -
[7] = molecular target: H-2K^b MHC class I molecule (mouse) (UniProt P01901); assay: FACS on RMA-S cells; IFN +, peptide +, hβ2m +
[8] = molecular target: H-2K^b MHC class I molecule (mouse) (UniProt P01901); assay: FACS on RMA-S cells; IFN +, peptide +, hβ2m -
[9] = molecular target: H-2K^b MHC class I molecule (mouse) (UniProt P01901); assay: FACS on RMA-S cells; IFN +, peptide -, hβ2m +
[10] = molecular target: H-2K^b MHC class I molecule (mouse) (UniProt P01901); assay: FACS on RMA-S cells; IFN +, peptide -, hβ2m -
[11] = molecular target: H-2K^b MHC class I molecule (mouse) (UniProt P01901); assay: FACS on RMA-S cells; IFN -, peptide +, hβ2m +
[12] = molecular target: H-2K^b MHC class I molecule (mouse) (UniProt P01901); assay: FACS on RMA-S cells; IFN -, peptide -, hβ2m -
[13] = molecular target: H-2K^b MHC class I molecule (mouse) (UniProt P01901); assay: FACS on CMT.64 cells; IFN +, peptide -, hβ2m -
[14] = molecular target: H-2K^b MHC class I molecule (mouse) (UniProt P01901); assay: FACS on CMT.64 cells; IFN -, peptide +, hβ2m +
[15] = molecular target: H-2K^b MHC class I molecule (mouse) (UniProt P01901); assay: FACS on CMT.64 cells; IFN -, peptide -, hβ2m -
[16] = molecular target: H-2K^b MHC class I molecule (mouse) (UniProt P01901); assay: FACS on CMT.64 cells; IFN * (so in the source), peptide +, hβ2m +

Sequence of UniProt P01901 (P01901 22-305 limits assumed): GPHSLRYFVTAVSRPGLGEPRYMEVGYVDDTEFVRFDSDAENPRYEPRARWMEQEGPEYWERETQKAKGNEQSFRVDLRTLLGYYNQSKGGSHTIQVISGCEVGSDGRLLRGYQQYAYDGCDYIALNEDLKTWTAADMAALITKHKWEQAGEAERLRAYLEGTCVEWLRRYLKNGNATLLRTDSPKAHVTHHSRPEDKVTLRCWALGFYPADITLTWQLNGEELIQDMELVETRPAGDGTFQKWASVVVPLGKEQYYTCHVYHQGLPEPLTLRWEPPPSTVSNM

142-23.3 anti H-2 K^b monoclonal antibody
fluorescence units (arbitrary fluorescence units) [1]: 780
fluorescence units (arbitrary fluorescence units) [2]: 606
fluorescence units (arbitrary fluorescence units) [3]: 438
fluorescence units (arbitrary fluorescence units) [4]: 346
fluorescence units (arbitrary fluorescence units) [5]: 242
fluorescence units (arbitrary fluorescence units) [6]: 164
fluorescence units (arbitrary fluorescence units) [7]: 41
fluorescence units (arbitrary fluorescence units) [8]: 10
fluorescence units (arbitrary fluorescence units) [9]: 10
fluorescence units (arbitrary fluorescence units) [10]: 12
fluorescence units (arbitrary fluorescence units) [11]: 70
fluorescence units (arbitrary fluorescence units) [12]: 12
fluorescence units (arbitrary fluorescence units) [13]: 26
fluorescence units (arbitrary fluorescence units) [14]: 8
fluorescence units (arbitrary fluorescence units) [15]: 5
fluorescence units (arbitrary fluorescence units) [16]: 35
